Three molecules from publication PMC1618809 (Molecular Microbiology, 2006) can be followed below.

For orientation: stoichiometry N means a count of units in the complex or per binding partner.

Series [1] deals with the molecule itself. The experiment in a line: AUC.
For series [2], the target named is T1, PfTrx-Px2Mut2 (Phe139Ala140 replaced by ValSer) (Plasmodium falciparum) (UniProt Q8I5Q6).
T1 sequence: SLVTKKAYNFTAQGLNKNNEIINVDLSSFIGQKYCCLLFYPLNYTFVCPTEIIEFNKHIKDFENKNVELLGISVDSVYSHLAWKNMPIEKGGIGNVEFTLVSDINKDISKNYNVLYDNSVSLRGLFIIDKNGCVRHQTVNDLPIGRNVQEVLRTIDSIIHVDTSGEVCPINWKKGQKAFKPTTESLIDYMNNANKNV

Series [3] addresses T2, PfTrx-Px2Mut1 (Asn62Tyr63 replaced by AspPhe) (Plasmodium falciparum) (UniProt Q8I5Q6).
T2 sequence: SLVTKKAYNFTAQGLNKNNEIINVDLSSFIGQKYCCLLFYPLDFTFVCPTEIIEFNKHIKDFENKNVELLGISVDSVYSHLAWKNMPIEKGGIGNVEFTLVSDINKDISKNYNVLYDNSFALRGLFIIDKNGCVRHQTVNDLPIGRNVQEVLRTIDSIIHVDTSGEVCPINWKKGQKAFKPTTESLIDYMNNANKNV

B1: Plasmodium falciparum mitochondrial peroxiredoxin (PfTrx-Px2), recombinant protein from construct pftrx-px2-2 lacking the first 19 amino acids (enzyme, UniProt Q8I5Q6 20-216, looked up)
chain: SLVTKKAYNFTAQGLNKNNEIINVDLSSFIGQKYCCLLFYPLNYTFVCPTEIIEFNKHIKDFENKNVELLGISVDSVYSHLAWKNMPIEKGGIGNVEFTLVSDINKDISKNYNVLYDNSFALRGLFIIDKNGCVRHQTVNDLPIGRNVQEVLRTIDSIIHVDTSGEVCPINWKKGQKAFKPTTESLIDYMNNANKNV
On to B1, for which, in series [1], the “stoichiometry N” value was determined as 10.

B2: Plasmodium falciparum thioredoxin 1 (PfTrx1), cytosolic thioredoxin (natural protein)
chain: MVKIVTSQAEFDSIISQNELVIVDFFAEWCGPCKRIAPFYEECSKTYTKMVFIKVDVDEVSEVTEKENITSMPTFKVYKNGSSVDTLLGANDSALKQLIEKYAA
As to B2, the KM^app of PfTrx-Px2Mut2 for Trx1; coupled peroxidase assay in series [2] came out at 78.8 µM. Moreover, the KM^app of PfTrx-Px2Mut1 for Trx1; coupled peroxidase assay in series [3] is 86.2 µM.

B3: Plasmodium falciparum thioredoxin 2 (PfTrx2), construct PfTrx2-S3 lacking the first 47 amino acids (domain or fragment)
chain: MFKKVPRLQQNGSNIINGVNMKNTVIVLYFFAKWCQACTMQSTEMDKLQKYYGKRIYLLKVDLDKNESLARKFSVKSLPTIILLKNKTMLARKDHFVSSNDLIALIKKHL
For B3, in series [2], the KM^app of PfTrx-Px2Mut2 for Trx2; coupled peroxidase assay stood at 12.1 µM. The KM^app of PfTrx-Px2Mut1 for Trx2; coupled peroxidase assay in series [3] was 7.7 µM.
